The text below walks through data of patent US20150374794A1 (Novo Nordisk, published 2015).

Numbered stars: 1 amine (or outer) side, 2 acyl side, 3 side chain; on linkers, the order of the positions; unused ones are H or OH. Square brackets hold non-standard residues; d marks the D form. Side chains are listed from the residue outwards. Ends that are not written are not given here. * marks the point of attachment. C18 diacid = O=C(O)CCCCCCCCCCCCCCCCC(=O)*; γGlu = O=C(O)[C@H](CCC(=O)[*:2])N[*:1]; Ac4c = NC1(C(=O)O)CCC1; AEEA = NCCOCCOCC(=O)O; Aib = CC(C)(N)C(=O)O

Assay [1] addresses T1, human GLP-1 receptor (human, UniProt P43220 24-463).
T1 construct: whole, on cells; the potency assay used whole cells (clone FCW467-12A/KZ10-1)
As to the kind of experiment: displacement of 125I-GLP-1(7-36)NH2, membranes with human GLP-1R, SPA. Here is the method: The receptor binding of each compound to the human GLP-1 receptor was measured in a displacement binding assay. […] Each derivative was added in a series of concentrations to isolated membranes containing the human GLP-1 receptor and displacement of the labelled ligand was monitored. The receptor binding was reported as the concentration at which half of the labelled ligand was displaced from the receptor, the IC₅₀ value.
On the technique in general: In a radioligand displacement assay an active substance lowers the binding of a labelled ligand.

In assay [2] the target is human glucagon receptor (human, UniProt P47871 26-477). As to the kind of experiment: cell-based or functional assay.
human glucagon receptor, sequence (P47871 26-477): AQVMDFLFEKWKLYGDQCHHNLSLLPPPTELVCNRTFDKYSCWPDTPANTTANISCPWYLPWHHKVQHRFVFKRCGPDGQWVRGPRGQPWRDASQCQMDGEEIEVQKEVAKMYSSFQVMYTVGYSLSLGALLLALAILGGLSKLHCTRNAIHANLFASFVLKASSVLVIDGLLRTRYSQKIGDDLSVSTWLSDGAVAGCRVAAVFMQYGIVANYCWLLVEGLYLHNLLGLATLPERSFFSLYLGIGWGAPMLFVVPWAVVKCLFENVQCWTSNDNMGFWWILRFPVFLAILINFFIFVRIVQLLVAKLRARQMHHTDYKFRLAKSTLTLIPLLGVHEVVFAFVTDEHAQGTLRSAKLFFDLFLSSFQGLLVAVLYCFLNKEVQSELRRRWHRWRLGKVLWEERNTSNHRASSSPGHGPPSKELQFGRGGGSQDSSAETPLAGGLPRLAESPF
Assay [3] concerns the target T1, human GLP-1 receptor. As to the kind of experiment: cell-based or functional assay.

B1: N^ε28-[(4S)-4-carboxy-4-[[(4S)-4-carboxy-4-[[2-[2-[2-[[2-[2-[2-[[(4S)-4-carboxy-4-(17-carboxyheptadecanoylamino)butanoyl]amino]ethoxy]ethoxy]acetyl]amino]ethoxy … (peptide)
peptide: H[Ac4c]QGTFTSDLSKYLESRRAREFVQWLLK([γGlu-γGlu-AEEA-AEEA-γGlu-C18 diacid])T-NH2
modifications: N-terminus assumed
SMILES: CC(C)C[C@H](NC(=O)[C@H](Cc1ccc(O)cc1)NC(=O)[C@H](CCCCN)NC(=O)[C@H](CO)NC(=O)[C@H](CC(C)C)NC(=O)[C@H](CC(=O)O)NC(=O)[C@H](CO)NC(=O)[C@@H](NC(=O)[C@H](Cc1ccccc1)NC(=O)[C@@H](NC(=O)CNC(=O)[C@H](CCC(N)=O)NC(=O)C1(NC(=O)[C@@H](N)Cc2c[nH]cn2)CCC1)[C@@H](C)O)[C@@H](C)O)C(=O)N[C@@H](CCC(=O)O)C(=O)N[C@@H](CO)C(=O)N[C@@H](CCCNC(=N)N)C(=O)N[C@@H](CCCNC(=N)N)C(=O)N[C@@H](C)C(=O)N[C@@H](CCCNC(=N)N)C(=O)N[C@@H](CCC(=O)O)C(=O)N[C@@H](Cc1ccccc1)C(=O)N[C@H](C(=O)N[C@@H](CCC(N)=O)C(=O)N[C@@H](Cc1c[nH]c2ccccc12)C(=O)N[C@@H](CC(C)C)C(=O)N[C@@H](CC(C)C)C(=O)N[C@@H](CCCCNC(=O)CC[C@H](NC(=O)CC[C@H](NC(=O)COCCOCCNC(=O)COCCOCCNC(=O)CC[C@H](NC(=O)CCCCCCCCCCCCCCCCC(=O)O)C(=O)O)C(=O)O)C(=O)O)C(=O)N[C@H](C(N)=O)[C@@H](C)O)C(C)C
By IC50 is commonly meant the concentration that gives 50% inhibition. Read a high IC50 as weaker potency in that assay. B1 registered an IC50 in assay [1] of 0.3 nM. Also, in assay [2], the “EC50 GlucR, CRE luciferase reporter gene assay in BHK cells” value (shortened to “EC50 GlucR”) was found to be 0.01 nM. Further, the “EC50 GLP-1R, CRE luciferase reporter gene assay in BHK cells” value (from here on “EC50 GLP-1R”) in assay [3] was 0.003 nM.

B2: N^ε28-[(4S)-4-carboxy-4-[[2-[2-[2-[[2-[2-[2-[[(4S)-4-carboxy-4-[[(4S)-4-carboxy-4-(17-carboxyheptadecanoylamino)butanoyl]amino]butanoyl]amino]ethoxy]ethoxy]acet … (peptide)
peptide: H[Aib]HGTFTSDLSKYLESRRAREFVQWLLK([γGlu-AEEA-AEEA-γGlu-γGlu-C18 diacid])T-NH2
modifications: N-terminus assumed
SMILES: CC(C)C[C@H](NC(=O)[C@H](Cc1ccc(O)cc1)NC(=O)[C@H](CCCCN)NC(=O)[C@H](CO)NC(=O)[C@H](CC(C)C)NC(=O)[C@H](CC(=O)O)NC(=O)[C@H](CO)NC(=O)[C@@H](NC(=O)[C@H](Cc1ccccc1)NC(=O)[C@@H](NC(=O)CNC(=O)[C@H](Cc1c[nH]cn1)NC(=O)C(C)(C)NC(=O)[C@@H](N)Cc1c[nH]cn1)[C@@H](C)O)[C@@H](C)O)C(=O)N[C@@H](CCC(=O)O)C(=O)N[C@@H](CO)C(=O)N[C@@H](CCCNC(=N)N)C(=O)N[C@@H](CCCNC(=N)N)C(=O)N[C@@H](C)C(=O)N[C@@H](CCCNC(=N)N)C(=O)N[C@@H](CCC(=O)O)C(=O)N[C@@H](Cc1ccccc1)C(=O)N[C@H](C(=O)N[C@@H](CCC(N)=O)C(=O)N[C@@H](Cc1c[nH]c2ccccc12)C(=O)N[C@@H](CC(C)C)C(=O)N[C@@H](CC(C)C)C(=O)N[C@@H](CCCCNC(=O)CC[C@H](NC(=O)COCCOCCNC(=O)COCCOCCNC(=O)CC[C@H](NC(=O)CC[C@H](NC(=O)CCCCCCCCCCCCCCCCC(=O)O)C(=O)O)C(=O)O)C(=O)O)C(=O)N[C@H](C(N)=O)[C@@H](C)O)C(C)C
On to B2, for which, in assay [1], the IC50 stood at 1.4 nM. Also, the “EC50 GlucR” value in assay [2] was 0.0048 nM. Besides, the “EC50 GLP-1R” value in assay [3] amounted to 0.0357 nM.

Molecule H[Aib]QGTFTSDLSKYLDLRRAQDFVQWLLK([γGlu-γGlu-Ser-Glu-Ser-γGlu-γGlu-C18 diacid])T-NH2 returned an IC50 in assay [1] of 1.9 nM. For the same molecule, the “EC50 GlucR” value in assay [2] was found to be 0.007 nM. Also, the “EC50 GLP-1R” value in assay [3] worked out at 0.011 nM.

For the molecule H[Aib]QGTFTSDLSKYLESKRAREFVQWLLK([γGlu-γGlu-Ser-Glu-Ser-γGlu-γGlu-C18 diacid])T-NH2, the IC50 in assay [1] came to 0.2 nM. Further, the “EC50 GLP-1R” value in assay [3] turned out to be 0.004 nM.

B3: N^ε28-[(4S)-4-carboxy-4-[[(4S)-4-carboxy-4-[[2-[2-[2-[[2-[2-[2-[[(4S)-4-carboxy-4-(17-carboxyheptadecanoylamino)butanoyl]amino]ethoxy]ethoxy]acetyl]amino]ethoxy … (peptide)
peptide: H[Aib]HGTFTSDLSKYLESRRAREFVQWLLK([γGlu-γGlu-AEEA-AEEA-γGlu-C18 diacid])T-NH2
modifications: N-terminus assumed
SMILES: CC(C)C[C@H](NC(=O)[C@H](Cc1ccc(O)cc1)NC(=O)[C@H](CCCCN)NC(=O)[C@H](CO)NC(=O)[C@H](CC(C)C)NC(=O)[C@H](CC(=O)O)NC(=O)[C@H](CO)NC(=O)[C@@H](NC(=O)[C@H](Cc1ccccc1)NC(=O)[C@@H](NC(=O)CNC(=O)[C@H](Cc1c[nH]cn1)NC(=O)C(C)(C)NC(=O)[C@@H](N)Cc1c[nH]cn1)[C@@H](C)O)[C@@H](C)O)C(=O)N[C@@H](CCC(=O)O)C(=O)N[C@@H](CO)C(=O)N[C@@H](CCCNC(=N)N)C(=O)N[C@@H](CCCNC(=N)N)C(=O)N[C@@H](C)C(=O)N[C@@H](CCCNC(=N)N)C(=O)N[C@@H](CCC(=O)O)C(=O)N[C@@H](Cc1ccccc1)C(=O)N[C@H](C(=O)N[C@@H](CCC(N)=O)C(=O)N[C@@H](Cc1c[nH]c2ccccc12)C(=O)N[C@@H](CC(C)C)C(=O)N[C@@H](CC(C)C)C(=O)N[C@@H](CCCCNC(=O)CC[C@H](NC(=O)CC[C@H](NC(=O)COCCOCCNC(=O)COCCOCCNC(=O)CC[C@H](NC(=O)CCCCCCCCCCCCCCCCC(=O)O)C(=O)O)C(=O)O)C(=O)O)C(=O)N[C@H](C(N)=O)[C@@H](C)O)C(C)C
Consider B3, for which the half-inhibitory concentration (IC50) in assay [1] came out at 0.6 nM. Moreover, the “EC50 GlucR” value in assay [2] turned out to be 0.0036 nM. In addition, in assay [3], the “EC50 GLP-1R” value came out at 0.0146 nM.

B4: N^ε28-[(4S)-4-carboxy-4-[[(4S)-4-carboxy-4-[[2-[2-[2-[[2-[2-[2-[[(4S)-4-carboxy-4-[[(4S)-4-carboxy-4-(17-carboxyheptadecanoylamino)butanoyl]amino]butanoyl]amino … (peptide)
peptide: H[Ac4c]QGTFTSDLSKYLESRRAREFVQWLLK([γGlu-γGlu-AEEA-AEEA-γGlu-γGlu-C18 diacid])T-NH2
modifications: N-terminus assumed
SMILES: CC(C)C[C@H](NC(=O)[C@H](Cc1ccc(O)cc1)NC(=O)[C@H](CCCCN)NC(=O)[C@H](CO)NC(=O)[C@H](CC(C)C)NC(=O)[C@H](CC(=O)O)NC(=O)[C@H](CO)NC(=O)[C@@H](NC(=O)[C@H](Cc1ccccc1)NC(=O)[C@@H](NC(=O)CNC(=O)[C@H](CCC(N)=O)NC(=O)C1(NC(=O)[C@@H](N)Cc2c[nH]cn2)CCC1)[C@@H](C)O)[C@@H](C)O)C(=O)N[C@@H](CCC(=O)O)C(=O)N[C@@H](CO)C(=O)N[C@@H](CCCNC(=N)N)C(=O)N[C@@H](CCCNC(=N)N)C(=O)N[C@@H](C)C(=O)N[C@@H](CCCNC(=N)N)C(=O)N[C@@H](CCC(=O)O)C(=O)N[C@@H](Cc1ccccc1)C(=O)N[C@H](C(=O)N[C@@H](CCC(N)=O)C(=O)N[C@@H](Cc1c[nH]c2ccccc12)C(=O)N[C@@H](CC(C)C)C(=O)N[C@@H](CC(C)C)C(=O)N[C@@H](CCCCNC(=O)CC[C@H](NC(=O)CC[C@H](NC(=O)COCCOCCNC(=O)COCCOCCNC(=O)CC[C@H](NC(=O)CC[C@H](NC(=O)CCCCCCCCCCCCCCCCC(=O)O)C(=O)O)C(=O)O)C(=O)O)C(=O)O)C(=O)N[C@H](C(N)=O)[C@@H](C)O)C(C)C
With B4, the IC50 in assay [1] stood at 0.3 nM. The “EC50 GlucR” value in assay [2] was 0.011 nM. The “EC50 GLP-1R” value in assay [3] was 0.006 nM.
